Reference: patent US20170355773A1 (PELICAN THERAPEUTICS, published 2017)

B1: WBP330-hPro1.ECD.hFcHis (non-mutated) (Fc fusion)
chain: QGGTRSPRCDCAGDFHKKIGLFCCRGCPAGHYLKAPCTEPCGNSTCLVCPQDTFLAWENHHNSECARCQACDEQASQVALENCSAVADTRCGCKPGWFVECQVSQCVSSSPFYCQPCLDCGALHRHTRLLCSRRDTDCGTCLPGFYEHGDGCVSCPTSTLGSCPERCAAVCGWRQMF
notes: also called recombinant TNFRSF25 polypeptide; non-mutated WBP330-hPro1.ECD.hFcHis; not shown: human Fc and 6His tag (hFc-6His)
B2: 9A5 (combinatorial scFv clone of W3072-z4C12) (scFv, V domains shown)
VH: EVQLVESGGGLSQPGNSLQLSCEASGFTFSNHDLNWVRQAPGKGLEWVAYISSASGLISYADAVRGRFTISRDNAKNSLFLQMNNLKSEDTAMYYCARDPAYTGLYALDFWGQGTQVTVSS
VL: QPVLTQSPSASASLSGSVKLTCTLSSELSGFTIVWYQQRPDKAPKYVMYLKSDGSHSKGDGIPDRFSGSSSGAHRYLSISNVQSEDDATYFCGAGYTLANQYGWVFGSGTKVTVL
B3: 4B6 (scFv, V domains shown)
VH: EVQLVESGGGLSQPGNSLQLSCEASGFTFSNHDLNWVRQAPGKGLEWVAYISSASGLISYADAVRGRFTISRDNAKNSLFLQMNNLKSEDTAMYYCARDPAYTGLYALDFWGQGTQVTVSS
VL: QPVLTQSPSASASLSGSVKLTCTLSSELSNYTIVWYQQRPDKAPKYVMYLKSDGSHSKGDGIPDRFSGSSSGAHRYLSISNVQSEDDATYFCGAGYTLANQYGWVFGSGTKVTVL

How the values were obtained:
W330-cAb1.hIgG1(35783) = target: T1, W330-cAb1.hIgG1(35783); assay: ELISA: coated antibody at 5 ug/ml, TNFRSF25 ECD.hFcHis titrated, detection with anti-his-HRP, absorbance at 450 nm; the concentration is that of the TNFRSF25 fusion
T1 construct: Parent hamster anti-TNFRSF25 antibody made chimeric with human IgFc (hIgG1); also called chimeric anti-TNFRSF25 antibody; chimeric parent antibody

TNFRSF25-Fc protein = target: T2, TNFRSF25-Fc protein (UniProt Q93038 25-199, biotinylated in the capture ELISA); assay: capture ELISA: scFv captured on anti-c-myc antibody, biotinylated TNFRSF25-Fc, streptavidin-HRP, OD450
T2 construct: also called TNFRSF25-Fc fusion protein; biotinylated antigen protein
T2 sequence (looked up): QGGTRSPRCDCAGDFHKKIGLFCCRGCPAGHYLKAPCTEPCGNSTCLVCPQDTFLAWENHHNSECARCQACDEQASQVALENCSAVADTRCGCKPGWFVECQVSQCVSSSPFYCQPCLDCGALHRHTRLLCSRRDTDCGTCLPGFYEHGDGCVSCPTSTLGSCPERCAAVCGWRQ

| Binder | EC50 (W330-cAb1.hIgG1(35783)) | EC50 (read off the curve) (TNFRSF25-Fc protein) |
| --- | --- | --- |
| B1 | 4.76 µg/mL | – |
| B2 | – | ~0.08 µg/mL |
| B3 | – | ~0.2 µg/mL |
